In the DeepSol protein solubility set:

Assay: soluble on expression in E. coli; label from the status in PepcDB or PDB records

Sequence | soluble on expression in E. coli
MADNLSDTLKKLKITAVDKTEDSLEGCLDCLLQALAQNNTETSEKIQASGILQLFATLLTPQSSCKAKVANIIAEVAKNEFMRIPCVDAGLISPLVQLLNSKDQEVLLQTGRALGNICYDSHEGRSAVDQAGGAQIVIDHLRSLCSITDPANEKLLTVFCGMLMNYSNENDSLQAQLINMGVIPTLVKLLGIHCQNAALTEMCLVAFGNLAELESSKEQFASTNIAEELVKLFKKQIEHDKREMIFEVLAPLAENDAIKLQLVEAGLVECLLEIVQQKVDSDKEDDITELKTGSDLMVLLLLGDESMQKLFEGGKGSVFQRVLSWIPSNNHQLQLAGALAIANFARNDANCIHMVDNGIVEKLMDLLDRHVEDGNVTVQHAALSALRNLAIPVINKAKMLSAGVTEAVLKFLKSEMPPVQFKLLGTLRMLIDAQEAAEQLGKNVKLVERLVEWCEAKDHAGVMGESNRLLSALIRHSKSKDVIKTIVQSGGIKHLVTMATSEHVIMQNEALVALALIAALELGTAEKDLESAKLVQILHRLLADERSAPEIKYNSMVLICALMGSECLHKEVQDLAFLDVVSKLRSHENKSVAQQASLTEQRLTVES | not soluble
MADQYHEPVSELTGKDRDFVRALNSLKEEIEAVAWYHQRVVTTKDETVRKILEHNRDEEMEHAAMLLEWLRRNMPGWDEALRTYLFTDKPITEIEEETSGGSENTGGDLGIRKL | soluble
MADSAQDLAFTAENFESLLNEQLGESGGLEGSVLTGTVIGVSGDFAVVDVGLKSEGRVPLKEFSRGGDDAEIKIGDTVDVFVERYEDKDGLIVLSRDKARREEAWNELEKAFNDNQRVRGLIHSRVKGGFTVDLSGAIAFLPGSQVDIRPVRDIGPLLGQPQVFQILKMDRARGNIVVSRRAVLEETRAEERSKLMETLREGEILEGVVKNITDYGAFVDLGGVDGLLHVTDISWKRINHPTEALSIGQTVKVQVIRFNAETQRISLGMKQLEADPWEGVAAKYPVGTKFVGRVTNITDYGAFVELEPGVEGLVHVSEMSWTKKNVHPGKIVSTSQEVEVMILDVDPDKRRISLGLKQTMANPWSEFLEGHPIGTEVEGEIKNITEFGLFIGLTGDIDGMIHLSDLDWNRSGDEAVKDYKKGDVVQAKVLDVDVEKERISLGVKQLGEDPYREATADLRKNQIVTCVITMVQENGIEVDVNGAIGFIRKSDLARERADQRPERFAVGEKVDAKVINMDKSNRRMTLSIKAREMDEEKQAMAEYGSADSGASLGDILGAALKQAQEKARTGDDELEHHHHHH | not soluble
MADTIEVDGKQFAVDEEGYLSNLNDWVPGVADVMAKQDNLELTEEHWDIINFLREYYEEYQIAPAVRVLTKAVGKKLGKEKGNSKYLYSLFPYGPAKQACRFAGLPKPTGCV | soluble
MAEICLITGTPGSGKTLKMVSMMANDEMFKPDENGIRRKVFTNIKGLKIPHTYIETDAKKLPKSTDEQLSAHDMYEWIKKPENIGSIVIVDEAQDVWPARSAGSKIPENVQWLNTHRHQGIDIFVLTQGPKLLDQNLRTLVRKHYHIASNKMGMRTLLEWKICADDPVKMASSAFSSIYTLDKKVYDLYESAEVHT | soluble
MAEIFRIPEEKFRDKVHKSLEENVTWVERETGRLPSYEEVEEFLVEEFSKVIPFEGEEPVPEEAIELADKLKEEFTSEEVLLEDTGRKHRAIKLREGVYLRTAVHKAQGGLIRTEVYTDGEVIERVKIYGDFTLYPKESLKELEEKLKGIKFEPEEIKKVAHEFLQKVDMPGVSAEDLVIAIYG | soluble
MAELRSFIFIDRLQPQTMSYLGTWIKGALPRANMAAQIIEVAPGLDIEGVTDVALKHAEVKAGILVVERQFGYLEFHGETGAVKAAADAALDYLGGDPDAAVRPEILASRIISSIDHQHAFLINRNKIGSMVLPGESLFVLEVAPASYAILATNEAEKAADVKVVDFRMIGATGRVYLSGTEADVRQAADAARDALAVLQGA | soluble
MAEQQQEQQIRVRIPRKEENEILGIIEQMLGASRVRVRCLDGKTRLGRIPGRLKNRIWVREGDVVIVKPWEVQGDQKCDIIWRYTKTQVEWLKRKGYLDELL | soluble
MAEREVRSTAYQLNAARFPLYRDLAGFDFASSEINEALVRQLHRCEFMDQANNVVLVGGPGTGKTHITTALGVRAVEHQCKRVRFFSTVEFVNVLEQEGPRAGQIANRLAHSDLVILNELGYLPFSASGGALLFHLLSTLYGRAPASSSPLKLISASASGLP | not soluble
MAERLLQSMSRVAGRCHPDCVKASDEQEDYHASQNAALVAVNLISSARLILKLDAEFTEYSAQFLMDNAGKEDDPGEVDQQRNQVTTENCLRYLAENVWTKKENGQGGMDQQRPVLTVKDCLELAFKKGLPRREHWAHLGCTFKAPPFACQIPRVPVKGEVVEVKTFDEAFKLLVHQPIGAKLHLFSPQIDNVGEGVYKGLTTGNETHYVGLRDVLIASVEEFEGDSVAIVKICYKKKLSFIKVSLSVRFLSVAHDGDKSKFIAPTGLLVDFCVPRLSIN | soluble
MAEVHVRELKGWEEMEEVVALQREVWGRAESDLVPRGLLVAVQDEGGLVAGAFAEGRMVGFVFGFPTKDPALHHSHMLGVLEAYRGTGAALLLKRFQRDWCLARGVRRVVWTFDPMRGVNANFNLRKLGATAKTYLPDHYGPMSGINAGAPSDRLLAEWDLLSERVYARLYAPPPEPEVAGLPQANRVEGEVPLEARLDLEAERLLFQIPEDWGRILREDPALALKWREHSRLVLPHYFARGYRLVDLVRHPNRYVLAKD | soluble
MAEWCADHLRNCEGWKSAGLELSTTSDENAKWLDACIRQLVSWSDCTSLGGFHTSIEKLVASDPEAIMARTFLVGLSGLGTEAAARNVEFAKKMDQLEIDAEKYGNAREKRHAKAAILWGRGKHHEAAIEWDKLLDDYPTDLIAVKFSHDAHFFNGNQIGKKNAIEKVIHKWNADLPCYSYLHGMYAFGLEECGIYDDAETQADRALQLNRFDCWASHAKAHVLEMNGRHKEGKEFMYKTEDDWRQGWMLASHNYWHTALFHIEYAEYESALGIFDREIANRFNKTNSLLDMVDASSLLWRLELEGVNVGRDRWRKIEHLSKFIDNHSIVFNDVHLGLAIYRQEDLETEKKLRNSLEKYSSLLSEDNAQISKTIGMPLYDGMLDFARCDYDTAAETMYPIRDKVVQIGGSHAQRDLFVQTLIQSCILSKDPKNWALTPELLVERETLKHDSLLGQRLADKFRALHPL | not soluble
MAFEESLVMVSSLSRLSICTSSAYDEAATKNQPDSCVSTSLENFDGAEADGEVSDDGEGKENVRESDSDKETRGFYSLPVTPSRRRRKLTVSGELDANESNKNGSKCSLRRQRREKKKKGVNGECDVGGREGLTVLTRARGGDRSLRMGLQEVKACRDLGFELEVPVPGRISVSTTGSNFDTQTSSGGDSPIATWRISSPGDDPKEVKARLKVWAQAVALASATRQAS | not soluble
MAFEMAPADPTLDLNMQLTKLGHGLLSGKYSMPATQKDATTGDPRQEGIPPRMFKNVIAASHAEFSSMRQQDALDFFLHLVGKVERASNTTPDLDPSRSFKFGIEEKILCPSGKVGYNKREDCILSLNIPLHEATNKDELEAFHKQKAGKGLEENDMRSSDEIVRPRVPLEACLANFASSEPIEDYYSSALKGMTTAIKTTGLTSFPDYLVLHMRKFVMEEGWVPKKLDVYIDVPDVIDISHMRSKGLQPGEELLPDGVPEEVMESAQPVANEEIVAQLVSMGFSQLHCQKAAINTSNAGVEEAMNWLLSHMDDPDIDAPISHQTSDIDQSSVDTLLSFGFAEDVARKALKASGGDIEKATDWVFNNPNASVSDMDVSSSNSAQTPAQSGLPDGGGKYKLFGIVSHMGTSVHCGHYVAHILKEGRWVIFNDDKVGISTDPPKDMGYVYFFQRLD | soluble
MAFGLPDTAALNKAADQKTSVSMPVRGRLVMNDSGILDVQLVKTNTAGAVKVARAVLDKETGYWGYTLPAVADVPAQTIFVSPADALGANGPLTLSGPVPLPERILHTGDQISAPQATDKTVTPVADDLDFDDIILVFPPESGLKPLYVMYRSPRNMPGTVSGKGLEHHHHHH | soluble
